Data taken from patent publication US20200262877A1, “ION CHANNEL-BINDING PEPTIDES AND METHODS OF USE THEREOF” (priority 2017, published 2020).

Experiments:
[1] = biological target: T1, 5HT3a (Homo sapiens, UniProt P46098); experiment: Ion channel panel (IonWorks Barracuda): 5HT3a; type: cell-based
T1 construct: host or cells: HEK293 or CHO
T1 sequence (P46098 whole entry, looked up): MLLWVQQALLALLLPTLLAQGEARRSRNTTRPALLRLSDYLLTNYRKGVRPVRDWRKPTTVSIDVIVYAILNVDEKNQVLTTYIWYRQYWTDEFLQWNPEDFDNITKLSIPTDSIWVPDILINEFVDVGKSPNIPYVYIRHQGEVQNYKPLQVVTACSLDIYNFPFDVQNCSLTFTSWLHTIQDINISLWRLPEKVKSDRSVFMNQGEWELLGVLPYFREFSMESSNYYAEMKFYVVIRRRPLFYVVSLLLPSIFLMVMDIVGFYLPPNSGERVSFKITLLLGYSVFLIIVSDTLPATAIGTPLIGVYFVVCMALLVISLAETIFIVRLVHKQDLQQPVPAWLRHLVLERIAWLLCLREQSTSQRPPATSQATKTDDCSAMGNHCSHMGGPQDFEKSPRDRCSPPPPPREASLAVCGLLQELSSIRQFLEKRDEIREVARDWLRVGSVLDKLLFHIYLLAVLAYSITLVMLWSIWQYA
How it was run: (§1)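 Peptides were tested in duplicate at final 20 μM and 200 nM, with concentration set by amino acid analysis, in HEPES-buffered saline. They were applied for at least 5 min to HEK293 or CHO cells transfected with each channel. Currents were expressed as % inhibition, 1-(Ipeptide/Icontrol)×100, or % activation, Ipeptide/Icontrol×100, against a channel-matched reference compound.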

[2] = biological target: T2, α3β4 (Homo sapiens, UniProt P30926+P32297); experiment: Ion channel panel (IonWorks Barracuda): α3β4; type: cell-based; details: 100% = no change, <100% = inhibition
T2 construct: host or cells: HEK293 or CHO
How it was run: as §1

[3] = biological target: T3, α4β2 (Homo sapiens, UniProt P17787+P43681); experiment: Ion channel panel (IonWorks Barracuda): α4β2; type: cell-based; details: 100% = no change, <100% = inhibition
T3 construct: host or cells: HEK293 or CHO
How it was run: as §1

[4] = biological target: T4, Cav2.1 (Homo sapiens, UniProt O00555); experiment: cell-based; details: 100% = no change, <100% = inhibition
T4 construct: host or cells: HEK293 or CHO
How it was run: as §1

[5] = biological target: T5, Cav2.2 (Homo sapiens, UniProt Q00975); experiment: cell-based; details: 100% = no change, <100% = inhibition
T5 construct: host or cells: HEK293 or CHO
How it was run: as §1

[6] = biological target: T6, Kv2.1 (Homo sapiens, UniProt Q14721); experiment: cell-based; details: 100% = no change, <100% = inhibition
T6 construct: host or cells: HEK293 or CHO
How it was run: as §1

[7] = test system: GABA; experiment: Ion channel panel (IonWorks Barracuda): GABA; type: cell-based; details: 100% = no change, <100% = inhibition
How it was run: as §1

[8] = biological target: Nav1.5 (Homo sapiens, UniProt Q14524); experiment: in vitro; details: 100% = no change; for Activity of Nav1.5 with peptide, expressed as a percentage of the reference compound: peptide at 0.2 μM; for Activity of Nav1.5 with peptide (percentage of the reference compound): peptide at 20 μM
How it was run: as §1

[9] = biological target: hERG (Homo sapiens, UniProt Q12809); experiment: in vitro; details: 100% = no change, <100% = inhibition
How it was run: as §1

[10] = biological target: T7, Kir2.1 (Homo sapiens, UniProt P63252); experiment: Ion channel panel (IonWorks Barracuda): Kir2.1; type: cell-based; details: 100% = no change, <100% = inhibition
T7 construct: host or cells: HEK293 or CHO
How it was run: as §1

[11] = biological target: T8, Kv1.1 (Homo sapiens, UniProt Q09470); experiment: cell-based; type: cell-based; details: 100% = no change, <100% = inhibition
T8 construct: host or cells: HEK293 or CHO
How it was run: as §1

[12] = biological target: T9, Kv1.2 (Homo sapiens, UniProt P16389); experiment: cell-based; type: cell-based; details: 100% = no change, <100% = inhibition
T9 construct: host or cells: HEK293 or CHO
How it was run: as §1

[13] = biological target: T10, Kv1.3 (Homo sapiens, UniProt P22001); experiment: cell-based; type: cell-based; details: 100% = no change, <100% = inhibition
T10 construct: host or cells: HEK293 or CHO
How it was run: as §1

[14] = biological target: T11, Nav1.7 (Homo sapiens, UniProt Q15858); experiment: cell-based; type: cell-based; details: 100% = no change; for Activity of Nav1.7 with peptide, expressed as a percentage of the reference compound: peptide at 0.2 μM; for Activity of Nav1.7 with peptide (percentage of the reference compound): peptide at 20 μM
T11 construct: host or cells: HEK293 or CHO

[15] = biological target: T12, NR2A (Homo sapiens, UniProt Q12879); experiment: Ion channel panel (IonWorks Barracuda): NR2A; type: cell-based; details: 100% = no change, <100% = inhibition
T12 construct: host or cells: HEK293 or CHO
How it was run: as §1

[16] = biological target: T13, NR2B (Homo sapiens, UniProt Q13224); experiment: Ion channel panel (IonWorks Barracuda): NR2B; type: cell-based; details: 100% = no change, <100% = inhibition
T13 construct: host or cells: HEK293 or CHO
How it was run: as §1

[17] = biological target: T14, TRPA1 (Homo sapiens, UniProt O75762); experiment: Ion channel panel (IonWorks Barracuda): TRPA1; type: cell-based; details: 100% = no change, <100% = inhibition
T14 construct: host or cells: HEK293 or CHO
How it was run: as §1

[18] = biological target: T15, TRPV1 (Homo sapiens, UniProt Q8NER1); experiment: Ion channel panel (IonWorks Barracuda): TRPV1; type: cell-based; details: 100% = no change, <100% = inhibition
T15 construct: host or cells: HEK293 or CHO
How it was run: as §1

[19] = first of two Nav1.5 columns (probably TP1)
[20] = second of two Nav1.5 columns (probably TP2)
[21] = first of two Nav1.7 columns (probably TP1)
[22] = second of two Nav1.7 columns (probably TP2)

T11 sequence (Q15858 whole entry): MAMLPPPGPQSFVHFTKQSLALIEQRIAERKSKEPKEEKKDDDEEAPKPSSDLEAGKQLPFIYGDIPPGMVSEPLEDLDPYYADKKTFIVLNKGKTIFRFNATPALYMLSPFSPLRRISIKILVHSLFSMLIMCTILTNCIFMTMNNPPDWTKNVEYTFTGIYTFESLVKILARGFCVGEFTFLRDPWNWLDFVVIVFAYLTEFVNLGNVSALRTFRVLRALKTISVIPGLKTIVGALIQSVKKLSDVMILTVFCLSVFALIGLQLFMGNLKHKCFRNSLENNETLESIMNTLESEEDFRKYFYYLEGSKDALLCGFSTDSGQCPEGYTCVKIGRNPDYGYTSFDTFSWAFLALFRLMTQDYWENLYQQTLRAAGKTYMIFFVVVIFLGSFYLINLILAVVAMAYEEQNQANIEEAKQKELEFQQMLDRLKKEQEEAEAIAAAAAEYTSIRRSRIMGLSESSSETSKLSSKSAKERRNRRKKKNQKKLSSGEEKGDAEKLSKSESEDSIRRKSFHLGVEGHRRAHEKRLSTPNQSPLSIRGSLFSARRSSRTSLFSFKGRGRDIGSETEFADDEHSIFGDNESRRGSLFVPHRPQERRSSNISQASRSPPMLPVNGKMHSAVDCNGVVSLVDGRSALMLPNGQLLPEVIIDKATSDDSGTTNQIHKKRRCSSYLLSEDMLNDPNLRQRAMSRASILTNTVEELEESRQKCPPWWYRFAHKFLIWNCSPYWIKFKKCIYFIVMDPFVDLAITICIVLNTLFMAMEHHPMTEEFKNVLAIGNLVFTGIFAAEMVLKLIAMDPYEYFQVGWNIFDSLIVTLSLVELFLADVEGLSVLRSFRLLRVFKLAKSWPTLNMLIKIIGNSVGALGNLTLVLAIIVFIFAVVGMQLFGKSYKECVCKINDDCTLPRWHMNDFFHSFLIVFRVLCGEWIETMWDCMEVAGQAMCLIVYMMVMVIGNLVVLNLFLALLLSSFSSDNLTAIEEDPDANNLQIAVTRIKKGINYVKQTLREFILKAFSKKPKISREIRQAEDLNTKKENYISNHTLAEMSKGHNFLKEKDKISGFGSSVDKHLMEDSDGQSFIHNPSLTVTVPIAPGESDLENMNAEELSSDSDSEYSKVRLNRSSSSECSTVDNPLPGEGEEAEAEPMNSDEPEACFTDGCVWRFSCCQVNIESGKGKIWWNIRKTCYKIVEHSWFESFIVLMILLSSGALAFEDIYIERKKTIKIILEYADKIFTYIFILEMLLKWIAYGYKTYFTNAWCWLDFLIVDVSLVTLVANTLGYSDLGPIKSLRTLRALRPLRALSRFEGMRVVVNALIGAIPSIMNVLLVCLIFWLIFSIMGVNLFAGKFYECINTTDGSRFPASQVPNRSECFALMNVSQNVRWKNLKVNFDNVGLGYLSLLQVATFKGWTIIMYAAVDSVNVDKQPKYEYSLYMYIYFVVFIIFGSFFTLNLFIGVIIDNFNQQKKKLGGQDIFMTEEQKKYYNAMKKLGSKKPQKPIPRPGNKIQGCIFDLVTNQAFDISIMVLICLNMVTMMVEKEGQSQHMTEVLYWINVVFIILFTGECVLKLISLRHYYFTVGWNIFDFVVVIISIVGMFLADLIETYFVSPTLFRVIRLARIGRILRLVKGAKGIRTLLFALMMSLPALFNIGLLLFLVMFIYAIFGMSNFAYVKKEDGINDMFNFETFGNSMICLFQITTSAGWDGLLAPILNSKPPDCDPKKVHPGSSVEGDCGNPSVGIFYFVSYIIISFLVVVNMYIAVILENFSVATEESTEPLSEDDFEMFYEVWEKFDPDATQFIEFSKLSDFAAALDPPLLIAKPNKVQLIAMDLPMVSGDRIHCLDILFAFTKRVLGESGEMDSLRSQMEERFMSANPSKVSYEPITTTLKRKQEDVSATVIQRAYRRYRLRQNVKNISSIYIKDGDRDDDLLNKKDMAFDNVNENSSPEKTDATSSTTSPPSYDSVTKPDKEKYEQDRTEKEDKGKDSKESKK
Chain of Nav1.5 (Q14524 whole entry): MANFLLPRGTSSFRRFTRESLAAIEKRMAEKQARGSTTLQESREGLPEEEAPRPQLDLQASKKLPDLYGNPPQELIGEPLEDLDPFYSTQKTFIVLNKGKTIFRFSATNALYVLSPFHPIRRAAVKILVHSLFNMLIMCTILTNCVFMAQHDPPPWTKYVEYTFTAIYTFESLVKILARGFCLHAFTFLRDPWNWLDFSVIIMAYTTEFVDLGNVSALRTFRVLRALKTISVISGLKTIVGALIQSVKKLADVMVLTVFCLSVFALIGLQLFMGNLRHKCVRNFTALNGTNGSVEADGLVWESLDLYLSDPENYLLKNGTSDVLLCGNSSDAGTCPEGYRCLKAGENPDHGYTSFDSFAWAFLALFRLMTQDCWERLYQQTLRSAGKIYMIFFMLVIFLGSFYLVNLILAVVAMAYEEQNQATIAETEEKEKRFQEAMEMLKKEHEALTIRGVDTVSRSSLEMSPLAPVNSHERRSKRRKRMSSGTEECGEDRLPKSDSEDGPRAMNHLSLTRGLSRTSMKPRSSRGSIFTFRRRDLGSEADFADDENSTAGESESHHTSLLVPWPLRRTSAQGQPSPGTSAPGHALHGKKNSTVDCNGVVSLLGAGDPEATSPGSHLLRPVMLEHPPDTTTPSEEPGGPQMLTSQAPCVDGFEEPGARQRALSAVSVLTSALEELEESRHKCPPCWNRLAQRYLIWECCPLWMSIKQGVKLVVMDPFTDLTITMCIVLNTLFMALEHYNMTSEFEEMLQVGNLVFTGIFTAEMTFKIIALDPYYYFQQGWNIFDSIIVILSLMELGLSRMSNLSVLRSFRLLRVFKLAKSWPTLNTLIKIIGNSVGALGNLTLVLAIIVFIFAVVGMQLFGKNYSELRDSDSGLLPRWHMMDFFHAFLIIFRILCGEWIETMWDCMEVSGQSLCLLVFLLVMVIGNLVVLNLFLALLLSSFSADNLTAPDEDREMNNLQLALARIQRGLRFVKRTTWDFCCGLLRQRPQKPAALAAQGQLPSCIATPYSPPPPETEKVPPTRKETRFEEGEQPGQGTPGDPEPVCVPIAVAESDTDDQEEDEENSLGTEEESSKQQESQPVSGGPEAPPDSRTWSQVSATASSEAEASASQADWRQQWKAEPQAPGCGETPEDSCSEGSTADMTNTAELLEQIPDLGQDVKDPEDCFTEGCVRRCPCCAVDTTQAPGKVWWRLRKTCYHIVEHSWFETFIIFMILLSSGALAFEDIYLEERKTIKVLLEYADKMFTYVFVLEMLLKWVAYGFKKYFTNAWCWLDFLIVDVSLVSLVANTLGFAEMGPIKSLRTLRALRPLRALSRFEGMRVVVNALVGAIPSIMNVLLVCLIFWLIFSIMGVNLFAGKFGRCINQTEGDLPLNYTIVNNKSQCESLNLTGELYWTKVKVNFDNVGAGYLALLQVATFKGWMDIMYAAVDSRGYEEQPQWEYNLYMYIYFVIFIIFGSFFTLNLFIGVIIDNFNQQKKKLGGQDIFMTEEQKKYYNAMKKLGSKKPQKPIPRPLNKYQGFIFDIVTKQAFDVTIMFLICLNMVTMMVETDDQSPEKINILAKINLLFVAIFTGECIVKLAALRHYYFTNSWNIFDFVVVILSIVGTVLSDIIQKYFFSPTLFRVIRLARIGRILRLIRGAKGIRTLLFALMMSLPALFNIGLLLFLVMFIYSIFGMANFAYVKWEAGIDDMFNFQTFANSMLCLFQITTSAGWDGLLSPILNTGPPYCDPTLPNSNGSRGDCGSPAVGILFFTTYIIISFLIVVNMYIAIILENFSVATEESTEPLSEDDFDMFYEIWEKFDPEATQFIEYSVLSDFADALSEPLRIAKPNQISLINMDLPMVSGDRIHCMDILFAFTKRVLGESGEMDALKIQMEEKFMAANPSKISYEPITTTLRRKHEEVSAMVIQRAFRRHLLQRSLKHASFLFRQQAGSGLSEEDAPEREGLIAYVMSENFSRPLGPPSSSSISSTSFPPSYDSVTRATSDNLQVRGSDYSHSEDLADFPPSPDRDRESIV
T14 sequence (O75762 whole entry): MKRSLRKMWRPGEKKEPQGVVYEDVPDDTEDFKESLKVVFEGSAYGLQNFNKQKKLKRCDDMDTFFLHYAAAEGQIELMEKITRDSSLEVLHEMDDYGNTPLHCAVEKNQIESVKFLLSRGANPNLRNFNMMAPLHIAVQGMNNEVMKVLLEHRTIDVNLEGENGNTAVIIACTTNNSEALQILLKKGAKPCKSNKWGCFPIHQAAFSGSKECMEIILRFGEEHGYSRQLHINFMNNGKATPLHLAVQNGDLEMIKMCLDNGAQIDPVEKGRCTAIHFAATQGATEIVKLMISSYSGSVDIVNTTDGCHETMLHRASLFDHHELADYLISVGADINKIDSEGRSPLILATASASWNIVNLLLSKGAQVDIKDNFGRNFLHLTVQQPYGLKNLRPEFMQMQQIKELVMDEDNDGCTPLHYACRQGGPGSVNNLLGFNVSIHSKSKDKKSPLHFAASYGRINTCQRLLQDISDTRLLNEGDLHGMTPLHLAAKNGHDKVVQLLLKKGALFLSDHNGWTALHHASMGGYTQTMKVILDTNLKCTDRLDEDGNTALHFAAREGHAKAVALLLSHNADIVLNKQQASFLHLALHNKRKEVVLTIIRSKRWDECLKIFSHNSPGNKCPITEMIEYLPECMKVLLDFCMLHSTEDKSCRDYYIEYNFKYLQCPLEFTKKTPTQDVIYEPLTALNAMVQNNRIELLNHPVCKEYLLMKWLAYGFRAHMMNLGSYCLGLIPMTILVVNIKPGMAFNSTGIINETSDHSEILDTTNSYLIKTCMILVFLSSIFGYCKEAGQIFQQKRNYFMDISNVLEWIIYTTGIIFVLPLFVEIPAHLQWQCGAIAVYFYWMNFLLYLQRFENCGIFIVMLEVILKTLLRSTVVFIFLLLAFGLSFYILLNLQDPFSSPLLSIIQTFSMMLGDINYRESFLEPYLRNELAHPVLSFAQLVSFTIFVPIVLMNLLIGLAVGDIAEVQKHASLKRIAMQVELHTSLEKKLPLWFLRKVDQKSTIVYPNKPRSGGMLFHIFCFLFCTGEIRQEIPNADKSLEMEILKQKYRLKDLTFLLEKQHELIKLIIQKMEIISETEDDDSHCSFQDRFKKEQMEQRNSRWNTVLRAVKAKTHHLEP

## 39 (GSGVPTDVKCRGSPQCIQPCKDAGMRFGKCMNGKCHCTPK) [compound 39]
[1]
  Activity of 5HT3a with peptide (percentage of the reference compound): 55%
  Activity of 5HT3a with peptide, expressed as a percentage of the reference compound: 67%
[2]; peptide at 0.2 μM
  Activity of a3b4 with peptide, expressed as a percentage of the reference compound: 99%
[2]; peptide at 20 μM
  Activity of a3b4 with peptide (percentage of the reference compound): 93%
[3]; peptide at 0.2 μM
  Activity of a4b2 with peptide, expressed as a percentage of the reference compound: 98%
[3]; peptide at 20 μM
  Activity of a4b2 with peptide (percentage of the reference compound): 91%
[4]; peptide at 0.2 μM
  Activity of Cav2.1 with peptide, expressed as a percentage of the reference compound: 96%
[4]; peptide at 20 μM
  Activity of Cav2.1 with peptide (percentage of the reference compound): 96%
[5]; peptide at 0.2 μM
  Activity of Cav2.2 with peptide, expressed as a percentage of the reference compound: 117%
[5]; peptide at 20 μM
  Activity of Cav2.2 with peptide (percentage of the reference compound): 98%
[6]; peptide at 0.2 μM
  Activity of Kv2.1 with peptide, expressed as a percentage of the reference compound: 118%
[6]; peptide at 20 μM
  Activity of Kv2.1 with peptide (percentage of the reference compound): 102%
[7]; peptide at 0.2 μM
  Activity of GABA with peptide, expressed as a percentage of the reference compound: 111%
[7]; peptide at 20 μM
  Activity of GABA with peptide (percentage of the reference compound): 108%
[8]; [19]
  Activity of Nav1.5 with peptide, expressed as a percentage of the reference compound: 108%
  Activity of Nav1.5 with peptide (percentage of the reference compound): 111%
[8]; [20]
  Activity of Nav1.5 with peptide, expressed as a percentage of the reference compound: 105%
  Activity of Nav1.5 with peptide (percentage of the reference compound): 114%
[9]; peptide at 0.2 μM
  Activity of hERG with peptide, expressed as a percentage of the reference compound: 103%
[9]; peptide at 20 μM
  Activity of hERG with peptide (percentage of the reference compound): 84%
[10]; peptide at 0.2 μM
  Activity of Kir2.1 with peptide, expressed as a percentage of the reference compound: 110%
[10]; peptide at 20 μM
  Activity of Kir2.1 with peptide (percentage of the reference compound): 98%
[11]; peptide at 0.2 μM
  Activity of Kv1.1 with peptide, expressed as a percentage of the reference compound: 37%
[11]; peptide at 20 μM
  Activity of Kv1.1 with peptide (percentage of the reference compound): 21%
[12]; peptide at 0.2 μM
  Activity of Kv1.2 with peptide, expressed as a percentage of the reference compound: 96%
[12]; peptide at 20 μM
  Activity of Kv1.2 with peptide (percentage of the reference compound): 84%
[13]; peptide at 0.2 μM
  Activity of Kv1.3 with peptide, expressed as a percentage of the reference compound: 7%
[13]; peptide at 20 μM
  Activity of Kv1.3 with peptide (percentage of the reference compound): 1%
[14]; [21]
  Activity of Nav1.7 with peptide, expressed as a percentage of the reference compound: 42%
  Activity of Nav1.7 with peptide (percentage of the reference compound): 108%
[14]; [22]
  Activity of Nav1.7 with peptide, expressed as a percentage of the reference compound: 39%
  Activity of Nav1.7 with peptide (percentage of the reference compound): 110%
[15]; peptide at 0.2 μM
  Activity of NR2A with peptide, expressed as a percentage of the reference compound: 106%
[15]; peptide at 20 μM
  Activity of NR2A with peptide (percentage of the reference compound): 82%
[16]; peptide at 0.2 μM
  Activity of NR2B with peptide, expressed as a percentage of the reference compound: 102%
[16]; peptide at 20 μM
  Activity of NR2B with peptide (percentage of the reference compound): 85%
[17]; peptide at 0.2 μM
  Activity of TRPA1 with peptide, expressed as a percentage of the reference compound: 136%
[17]; peptide at 20 μM
  Activity of TRPA1 with peptide (percentage of the reference compound): 92%
[18]; peptide at 0.2 μM
  Activity of TRPV1 with peptide, expressed as a percentage of the reference compound: 95%
[18]; peptide at 20 μM
  Activity of TRPV1 with peptide (percentage of the reference compound): 83%
